Results taken from publication PMC10247848.

What was measured:
[1] = Pi release from G6P in HeLa lysates, 24 h; conditions: glycan lost; control: wild type
[2] = Western blot, total hG6Pase-α in HeLa lysates, 24 h; conditions: glycan lost; control: wild type

B1: human glucose-6-phosphatase-α (hG6Pase-α): N96A (protein)
parent chain: MEEGMNVLHDFGIQSTHYLQVNYQDSQDWFILVSVIADLRNAFYVLFPIWFHLQEAVGIKLLWVAVIGDWLNLVFKWILFGQRPYWWVLDTDYYSNTSVPLIKQFPVTCETGPGSPSGHAMGTAGVYYVMVTSTLSIFQGKIKPTYRFRCLNVILWLGFWAVQLNVCLSRIYLAAHFPHQVVAGVLSGIAVAETFSHIHSIYNASLKKYFLITFFLFSFAIGFYLLLKGLGVDLLWTLEKAQRWCEQPEWVHIDTTPFASLLKNLGTLFGLGLALNSSMYRESCKGKLSKWLPFRLSSIVASLVLLHVFDSLKPPSQVELVFYVLSFCKSAVVPLASVSVIPYCLAQVLGQPHKKSL
With B1 the “enzymatic_activity, percent_of_wt” value [1] was “abolishes, 0.9 ± 0.8 vs 100 ± 21.6” and the “expression_or_secretion, percent_of_wt” value [2] was “no change, 109.0 ± 16.9 vs 100.0 ± 8.2”.
